# Reference: patent US20110008774A1 (CORNELL RESEARCH FOUNDATION, published 2011)
# Residue numbers refer to the chain shown, from its start.
# B1: scFv13 variant S20 (scFv)
# scFv: MADYKDDDDKGGSAEVQLVESGGGLVKPGGSLRLSCAASGFTFSNNSMNWVRQAPGKGLEWVSSISSSSSYIYYADFVKGRFTISRDNAKNSLYLQMNSLRAEDTAVYYCARSSTTIFGGGMDVWGRGTLVTVSSGGGGSGEGGSGGGGSQSVLTQPASVSGSPGQSITISCAGTSSDVGGYNYVSWYQQHPGKAPKLMIYEDSKRPSGVSNRFSGSKSGNTASLTISGLQAEDEADYYCSSYTTRSTRVFGGGTKLAVLGAAAEQKLISEGDLNGAAELHHHHHH
# B2: scFv13 variant S23 (scFv)
# scFv: B1 scFv with N46Y, V62I, A89V, T115I, E142G, P192L, D203G, P207S, G272E
# Target: AMEF β-gal (normally inactive β-galactosidase variant, AMEF 959) (E. coli)
# Experiment: cell-based or functional assay
row,Binder,"AMEF β-gal activation in vivo (whole cell X-gal hydrolysis, absorbance at 620 nm)"
1,B1,~2 fold over wt scFv13
2,B2,~2 fold over wt scFv13
